Consider 13 molecules from patent US20110263827A1 (AbbVie / Abbott, published 2011).

Assay [1] has as its target T1, EGFR (UniProt P00533 25-645, limits assumed, biotinylated).
T1 construct: ELISA antigen; construct not described
The assay can be described thus: direct bind ELISA, N-term VD.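 Further: antibody or DVD-Ig preparations bound to immobilized target antigen on ELISA plates, 1 h at room temperature, TMB detection read as absorbance at 450 nm.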 On the technique in general: ELISA stands for enzyme-linked immunosorbent assay.

Assay [2] addresses T2, DLL-4 (UniProt Q9NR61 27-524, limits assumed, biotinylated).
T2 construct: ELISA antigen
Kind of assay: direct bind ELISA, C-term VD.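 Further: ELISA with antibody or DVD-Ig preparations applied to target antigen-coated plates for 1 h at room temperature, TMB colour development, absorbance read at 450 nm.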

A further assay deals with T3, PLGF (UniProt P49763-2 21-149, limits assumed, biotinylated).
T3 construct: ELISA antigen; also called P1GF
T3 sequence (looked up): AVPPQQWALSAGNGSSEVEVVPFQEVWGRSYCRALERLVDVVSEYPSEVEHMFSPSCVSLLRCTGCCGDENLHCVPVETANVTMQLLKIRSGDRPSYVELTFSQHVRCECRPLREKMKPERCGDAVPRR
Kind of assay: direct bind ELISA, C-term VD.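 Further: ELISA with antibody or DVD-Ig preparations applied to target antigen-coated plates for 1 h at room temperature, TMB colour development, absorbance read at 450 nm.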

Assay [3] addresses T2, DLL-4. The assay can be described thus: direct bind ELISA, N-term VD.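 Further: antibody or DVD-Ig preparations bound to immobilized target antigen on ELISA plates, 1 h at room temperature, TMB detection read as absorbance at 450 nm.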
Assay [4] has as its target T1, EGFR. Kind of assay: direct bind ELISA, C-term VD.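 Further: ELISA with antibody or DVD-Ig preparations applied to target antigen-coated plates for 1 h at room temperature, TMB colour development, absorbance read at 450 nm.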
The target of another assay is T4, HGF (UniProt P14210 32-728, limits assumed, biotinylated).
T4 construct: ELISA antigen
Kind of assay: direct bind ELISA, N-term VD.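 Further: antibody or DVD-Ig preparations bound to immobilized target antigen on ELISA plates, 1 h at room temperature, TMB detection read as absorbance at 450 nm.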

B1: DVD781 (bispecific antibody)
VH: QVQLQESGPGLVKPSQTLSLTCTVSGYSISSDFAWNWIRQPPGKGLEWMGYISYSGNTRYQPSLKSRITISRDTSKNQFFLKLNSVTAADTATYYCVTAGRGFPYWGQGTLVTVSSASTKGPSVFPLAPEVQLVESGGGLVQPGGSLRLSCAASGFTFTDNWISWVRQAPGKGLEWVGYISPNSGFTYYADSVKGRFTISADTSKNTAYLQMNSLRAEDTAVYYCARDNFGGYFDYWGQGTLVTVSS
VL: DIQMTQSPSSMSVSVGDRVTITCHSSQDINSNIGWLQQKPGKSFKGLIYHGTNLDDGVPSRFSGSGSGTDYTLTISSLQPEDFATYYCVQYAQFPWTFGGGTKLEIKRTVAAPSVFIFPPDIQMTQSPSSLSASVGDRVTITCRASQDVSTAVAWYQQKPGKAPKLLIYSASFLYSGVPSRFSGSGSGTDFTLTISSLQPEDFATTYYCQQSYTGTVTFGQGTKVEIKR
notes: DVD-Ig; HC L, LC L; variable parts only
B1: the results for the EC50 with EGFR [1] and with DLL-4 [2] were 4.19 nM and 0.42 nM, respectively.

B2: DVD811 (bispecific antibody)
VH: B1 VH
VL: DIQMTQSPSSMSVSVGDRVTITCHSSQDINSNIGWLQQKPGKSFKGLIYHGTNLDDGVPSRFSGSGSGTDYTLTISSLQPEDFATYYCVQYAQFPWTFGGGTKLEIKRTVAAPDIQMTQSPSSLSASVGDRVTITCRASQDVSTAVAWYQQKPGKAPKLLIYSASFLYSGVPSRFSGSGSGTDFTLTISSLQPEDFATTYYCQQSYTGTVTFGQGTKVEIKR
notes: DVD-Ig; HC L, LC S; variable parts only
With B2, the 50% effective concentration (EC50) – broadly, the midpoint of the concentration-response curve – in the assay with EGFR [1] worked out at 3.45 nM; in the assay with DLL-4 [2] it was 0.99 nM.

B3: DVD841 (bispecific antibody)
VH: QVQLQESGPGLVKPSQTLSLTCTVSGYSISSDFAWNWIRQPPGKGLEWMGYISYSGNTRYQPSLKSRITISRDTSKNQFFLKLNSVTAADTATYYCVTAGRGFPYWGQGTLVTVSSASTKGPEVQLVESGGGLVQPGGSLRLSCAASGFTFTDNWISWVRQAPGKGLEWVGYISPNSGFTYYADSVKGRFTISADTSKNTAYLQMNSLRAEDTAVYYCARDNFGGYFDYWGQGTLVTVSS
VL: B1 VL
notes: DVD-Ig; HC S, LC L; variable parts only
Take B3: the EC50 with EGFR [1] was determined as 4.06 nM; in the assay with DLL-4 [2], 0.55 nM.

B4: DVD783 (bispecific antibody)
VH: QVQLQESGPGLVKPSQTLSLTCTVSGYSISSDFAWNWIRQPPGKGLEWMGYISYSGNTRYQPSLKSRITISRDTSKNQFFLKLNSVTAADTATYYCVTAGRGFPYWGQGTLVTVSSASTKGPSVFPLAPQVQLQQSGAELVKPGASVKISCKASGYTFTDYYINWVKLAPGQGLEWIGWIYPGSGNTKYNEKFKGKATLTIDTSSSTAYMQLSSLTSEDTAVYFCVRDSPFFDYWGQGTLLTVSS
VL: DIQMTQSPSSMSVSVGDRVTITCHSSQDINSNIGWLQQKPGKSFKGLIYHGTNLDDGVPSRFSGSGSGTDYTLTISSLQPEDFATYYCVQYAQFPWTFGGGTKLEIKRTVAAPSVFIFPPDIVLTQSPDSLAVSLGERVTMNCKSSQSLLNSGMRKSFLAWYQQKPGQSPKLLIYWASTRESGVPDRFTGSGSGTDFTLTISSVQAEDVAVYYCKQSYHLFTFGSGTKLEIKR
notes: as for B1
Take B4: the concentration giving a half-maximal response (EC50) came out at 3.88 nM in the assay with EGFR [1] and 0.36 nM with PLGF.

B5: DVD339 (bispecific antibody)
VH: B3 VH
VL: B2 VL
notes: DVD-Ig; HC S, LC S; variable parts only
On to B5, for which the EC50 with EGFR [1] turned out to be 5.1 nM; in the assay with DLL-4 [2], 4.01 nM.

B6: DVD340 (bispecific antibody)
VH: EVQLVESGGGLVQPGGSLRLSCAASGFTFTDNWISWVRQAPGKGLEWVGYISPNSGFTYYADSVKGRFTISADTSKNTAYLQMNSLRAEDTAVYYCARDNFGGYFDYWGQGTLVTVSSASTKGPQVQLQESGPGLVKPSQTLSLTCTVSGYSISSDFAWNWIRQPPGKGLEWMGYISYSGNTRYQPSLKSRITISRDTSKNQFFLKLNSVTAADTATYYCVTAGRGFPYWGQGTLVTVSS
VL: DIQMTQSPSSLSASVGDRVTITCRASQDVSTAVAWYQQKPGKAPKLLIYSASFLYSGVPSRFSGSGSGTDFTLTISSLQPEDFATTYYCQQSYTGTVTFGQGTKVEIKRTVAAPDIQMTQSPSSMSVSVGDRVTITCHSSQDINSNIGWLQQKPGKSFKGLIYHGTNLDDGVPSRFSGSGSGTDYTLTISSLQPEDFATYYCVQYAQFPWTFGGGTKLEIKR
notes: as for B5
Regarding B6, the EC50 is 0.32 nM with DLL-4 [3] and 189 nM with EGFR [4].

B7: DVD778 (bispecific antibody)
VH: QVQLVESGGGLVKPGGSLRLSCAASGFTFSDYYMSWIRQAPGKGLEWVSYISSSGSTIYYADSVKGRFTISRDNAKNSLYLQMNSLRAEDTAVYYCARDEYNSGWYVLFDYWGQGTLVTVSSASTKGPSVFPLAPQVQLQESGPGLVKPSQTLSLTCTVSGYSISSDFAWNWIRQPPGKGLEWMGYISYSGNTRYQPSLKSRITISRDTSKNQFFLKLNSVTAADTATYYCVTAGRGFPYWGQGTLVTVSS
VL: DIQMTQSPSSVSASVGDRVTITCRASQGISSWLAWYQQKPGKAPNLLIYEASSLQSGVPSRFGGSGSGTDFTLTISSLQPEDFATYYCQQANGFPWTFGQGTKVEIKRTVAAPSVFIFPPDIQMTQSPSSMSVSVGDRVTITCHSSQDINSNIGWLQQKPGKSFKGLIYHGTNLDDGVPSRFSGSGSGTDYTLTISSLQPEDFATYYCVQYAQFPWTFGGGTKLEIKR
notes: as for B1
Consider B7, for which the values for the EC50 with HGF and with EGFR [4] were 0.17 nM and 50.3 nM, respectively.

B8: DVD808 (bispecific antibody)
VH: B7 VH
VL: DIQMTQSPSSVSASVGDRVTITCRASQGISSWLAWYQQKPGKAPNLLIYEASSLQSGVPSRFGGSGSGTDFTLTISSLQPEDFATYYCQQANGFPWTFGQGTKVEIKRTVAAPDIQMTQSPSSMSVSVGDRVTITCHSSQDINSNIGWLQQKPGKSFKGLIYHGTNLDDGVPSRFSGSGSGTDYTLTISSLQPEDFATYYCVQYAQFPWTFGGGTKLEIKR
notes: as for B2
On to B8, for which the EC50 with HGF was 0.14 nM; in the assay with EGFR [4] it was 96.4 nM.

B9: DVD838 (bispecific antibody)
VH: QVQLVESGGGLVKPGGSLRLSCAASGFTFSDYYMSWIRQAPGKGLEWVSYISSSGSTIYYADSVKGRFTISRDNAKNSLYLQMNSLRAEDTAVYYCARDEYNSGWYVLFDYWGQGTLVTVSSASTKGPQVQLQESGPGLVKPSQTLSLTCTVSGYSISSDFAWNWIRQPPGKGLEWMGYISYSGNTRYQPSLKSRITISRDTSKNQFFLKLNSVTAADTATYYCVTAGRGFPYWGQGTLVTVSS
VL: B7 VL
notes: as for B3
B9: the EC50 was 0.19 nM with HGF and 57.7 nM in the assay with EGFR [4].

B10: DVD336 (bispecific antibody)
VH: B9 VH
VL: B8 VL
notes: as for B5
In the case of B10, the concentration for a half-maximal effect (EC50) with HGF is 0.15 nM; with EGFR [4] it was 332 nM.

B11: DVD782 (bispecific antibody)
VH: EVQLVESGGGLVQPGGSLRLSCAASGFTFTDNWISWVRQAPGKGLEWVGYISPNSGFTYYADSVKGRFTISADTSKNTAYLQMNSLRAEDTAVYYCARDNFGGYFDYWGQGTLVTVSSASTKGPSVFPLAPQVQLQESGPGLVKPSQTLSLTCTVSGYSISSDFAWNWIRQPPGKGLEWMGYISYSGNTRYQPSLKSRITISRDTSKNQFFLKLNSVTAADTATYYCVTAGRGFPYWGQGTLVTVSS
VL: DIQMTQSPSSLSASVGDRVTITCRASQDVSTAVAWYQQKPGKAPKLLIYSASFLYSGVPSRFSGSGSGTDFTLTISSLQPEDFATTYYCQQSYTGTVTFGQGTKVEIKRTVAAPSVFIFPPDIQMTQSPSSMSVSVGDRVTITCHSSQDINSNIGWLQQKPGKSFKGLIYHGTNLDDGVPSRFSGSGSGTDYTLTISSLQPEDFATYYCVQYAQFPWTFGGGTKLEIKR
notes: as for B1
For the molecule B11, the half-maximal effective concentration (EC50) with DLL-4 [3] was determined as 0.37 nM; with EGFR [4] it was 55.2 nM.

B12: DVD842 (bispecific antibody)
VH: B6 VH
VL: B11 VL
notes: as for B3
Take B12: the half-maximal effective concentration (EC50) with DLL-4 [3] was determined as 0.36 nM; in the assay with EGFR [4], 51.7 nM.

B13: DVD812 (bispecific antibody)
VH: B11 VH
VL: B6 VL
notes: as for B2
Take B13: the results for the EC50 with DLL-4 [3] and in the assay with EGFR [4] were 0.39 nM and 77.3 nM, respectively.
